Assay results taken from US20080235828A1 (University of Manitoba, priority 2004, published 2008).

Legend:
em promoter = em promoter driven GUS expression in bombarded barley aleurone layers; type: cell-based; conditions: em plus ABAP1 bombardment, without ABA treatment
Source text: The studies examined the effector and reporter constructs, at a 1:1 ratio, introduced to barley aleurone layers by gold particle bombardment. The bombardment consisted of two trials: the first trial was a bombardment of em promoter only; the second trial was a bombardment of em promoters treated with ABAP1.

α-amylase activity = α-amylase activity in bombarded barley aleurones; type: cell-based; conditions: em and ABAP1 bombarded aleurones
Protocol: A similar experiment was conducted with α-amylase activity to confirm if ABAP1 is involved in another signal transduction pathway. α-amylase activity was measured after ABA, PBI51 and GA were added to the em and ADAPT bombarded barley aleurones.

McLeod barley embryos = experiment: Germination of bombarded mature embryos, McLeod line; type: in vivo; conditions: in the presence of ABAP1
Protocol: (§1) To determine whether or not ABAP1 affects seed germination, mature embryo from two different barley lines (McLeod and Harrington) were bombarded with sense and anti-sense orientation of ABAP1. The embryos were subjected to different ABA treatments and the germination rate, plumule length, radical length and root numbers per embryo were measured for up to four days after bombardment.

[1] = test system: Harrington barley embryos; experiment: Germination and growth of bombarded mature embryos, Harrington line; type: in vivo
Protocol: as §1

B1: ABAP1: barley ABA-binding protein, 472 amino acids, SEQ ID NO: 10; expressed from effector construct in bombardment tests (protein)
chain: MNSLSGTYIMRGCEQPLIVRFADPKRPRPGESRGGPAFGGPGVSSRSDAALVIRPTANLDEQIGRHMPPDTWRPSSPSSMAPHQFNNFGSDNSMGLMGGPVTSAADNVAFRPQLFHGNGSLSSQTAVPASSHMGINPSLSQGHHLGGPQIPPLQKPTGLQQNFPVQLQNAQQGQLHASQSLGPGSFGQNIPTMQLPGQLPVSQPLTQQNASACALQAPSAVQSNPMQSVPGQQQLPSNLTPQMLQQPVQQMLSQAPQLLLQQQQAAMQSSYQSSQQTIFQLQQQLQLMQQQQHQQQPNLNQQPHTQVPKQQGQPVQSNAPGAPAAMMTTNINAIPQQVNSPAVSLTCNWTEHTSPEGFKYYYNSITRESKWEKPEEYVLYEQQQQQQDHQKLILLQQHQQKLVAQQLQSPPQAQTIPSMQSMQHHPQSQQGHNQMQMKQQDLNYNQLQPTGTIDPSRIQQGIQAAQERSWKS
modifications: Hordeum, vulgare subsp. vulgare
- GUS activity versus em alone (em promoter): twice fold
- α-amylase activity (α-amylase activity): reduction
- germination rate (McLeod barley embryos): significantly lower
- germination rates [1]: did not seem to be affected
- plumule and radical growth ([1]; in the presence of ABAP1): significantly retarded
